Source: US20210221875A1 (Chugai, published 2021)

T1: soluble human IL-6R (human, UniProt P08887 20-357)
T1 construct: also called hsIL-6R; recombinant human IL6R
T1 sequence: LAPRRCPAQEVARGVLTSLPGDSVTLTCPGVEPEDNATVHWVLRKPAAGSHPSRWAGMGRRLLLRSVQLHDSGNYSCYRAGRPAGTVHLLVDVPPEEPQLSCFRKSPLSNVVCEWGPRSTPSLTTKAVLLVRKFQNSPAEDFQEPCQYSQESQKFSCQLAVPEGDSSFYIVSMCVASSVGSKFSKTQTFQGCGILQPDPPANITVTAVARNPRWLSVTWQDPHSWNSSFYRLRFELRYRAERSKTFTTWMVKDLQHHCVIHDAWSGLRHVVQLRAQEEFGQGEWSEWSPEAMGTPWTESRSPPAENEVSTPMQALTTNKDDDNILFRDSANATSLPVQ


Each binder was assayed against T1, soluble human IL-6R (assay: BLI (Octet), in the same way as in Example 3, 30 C or 25 C).

binding result | Binder
no binding | 20A11hu-G1m/VK2-28-k0MT (antibody, human IgG1, kappa, V domains shown, IgG antibody-like molecule with VHH 20A11hu in place of VH) VH: EVQLVESGGGLVQPGGSLRLSCAASGSVFKINVMAWVRQAPGKGLEWVAGIISGGSTSYADSVKGRFTISRDNAKNTLYLQMNSLRPEDTAVYYCAFITTESDYDLGRRYWGQGTLVTVSS VL: not shown
no binding | 20A11hu-G1m/VL1-40-lamL (antibody, human IgG1, lambda, V domains shown, IgG antibody-like molecule with VHH 20A11hu in place of VH) VH: EVQLVESGGGLVQPGGSLRLSCAASGSVFKINVMAWVRQAPGKGLEWVAGIISGGSTSYADSVKGRFTISRDNAKNTLYLQMNSLRPEDTAVYYCAFITTESDYDLGRRYWGQGTLVTVSS VL: QSVLTQPPSVSGAPGQRVTISCTGSSSNIGAGYDVHWYQQLPGTAPKLLIYGNSNRPSGVPDRFSGSKSGTSASLAITGLQAEDEADYYCQSYDNSLNAVVFGGGTKLTVLG
no binding | 20A11hu-G1m/VK1-39-k0MT (antibody, human IgG1, kappa, V domains shown, IgG antibody-like molecule) VH: EVQLVESGGGLVQPGGSLRLSCAASGSVFKINVMAWVRQAPGKGLEWVAGIISGGSTSYADSVKGRFTISRDNAKNTLYLQMNSLRPEDTAVYYCAFITTESDYDLGRRYWGQGTLVTVSS VL: DIQMTQSPSSLSASVGDRVTITCRASQSISSYLNWYQQKPGKAPKLLIYAASSLQSGVPSRFSGSGSGTDFTLTISSLQPEDFATYYCLQFDSYPLTFGGGTKVEIKR

The binders below were run against T2, biotin-rabbit aggrecan G1-IGD-G2-3xFlag (rabbit, UniProt Q28670 17-683, biotin on the N-terminal Avi-tag (BirA co-expression)) (assay: SPR (Biacore T200), 37 C, pH 7.4, antibody captured, Avi RbG1G2 3Flag as analyte, 1:1 model;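 further: antibodies captured at roughly 200 RU on a CM4 or C1 chip through anti-human IgG Fc or Protein A/G, in sodium phosphate NaCl buffer with Tween 20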).
T2 construct: three tandem Flag-tags at the C-terminus and Avi-tag at the N-terminus; also called biotinylated Avi-rabbit aggrecan G1-IGD-G2-3xFLAG; Avi RbG1G2 3FLAG
Protocol: Anti-Human IgG (Fc) antibody was immobilized onto all flow cells of a CM4 sensor chip using Human antibody capture kit (GE Healthcare). Protein A/G was immobilized onto all flow cells of a CM4 or C1 sensor chip using amine coupling kit (GE Healthcare). Antibodies and analytes were prepared in buffer (50 mM Sodium Phosphate, 150 mM NaCl, 0.02% Tween 20, 0.005% NaN3, pH 7.4 or 20 mM Sodium Phosphate, 150 mM NaCl, 0.05% Tween20, 0.005% NaN₃, pH 7.4). Each antibody was captured onto the sensor surface by Anti-Human IgG (Fc) antibody or Protein A/G. Antibody capture levels were aimed at 200 resonance unit (RU). […] Sensor surface was regenerated each cycle with 3 M MgCl₂ or 10 mM Glycine-HCl, pH 1.5.

Binder | Kd [nM] | koff [s⁻¹] | kon [M⁻¹ s⁻¹]
GRA0124Hc0626-SG1/GRA0124Lc0544-SK2021 (antibody, human IgG1, kappa, the row with this full length name is used) heavy: not shown light: AQVLTQTPSSTSVAVGGTVTINCQSSPSVYLNLLAWYQQKPGQPPKLLIYSASFLQSGVPPRFSGSGSGTQFTLTISGVQCADAATYYCAGVYSNNIYTFGGGTKVEIKETVAAPSVFIFPPSDEQLKSGTASVVCLLNNFYPREAEVQWKVDNALQSGNSQESVTEQDSKDCTYSLSSTLTLSKADYEKHKVYACEVTHQGLSSPVTKSFNRGEC | 13.4 | 0.000718 | 53500
GRA0124Hc0626-SG1/GRA0124Lc0694-SK2 (antibody, human IgG1, kappa, V domains shown, full length antibody) VH: QSVEESGGRLVTPGTPLTLTCTVSGVDLSNYAIHWVRQAPGKGLEWIGMIRSNGMRYYGTWAKGRFTTSKTSSTTVDLKMTSPTTEDTATYFCARLWNIWGPGTLVTVSS VL: AQVLTQTPSSTSVAVGGTVTINCQSSPSVYLNLLAWYQQKPGQPPKLLIYSASALQSGVPPRFSGSGSGTQFTLTISGVQCADAATYYCAGVYSNNIYTFGGGTKVEIKR | 77.5 | 0.00202 | 26100
GRA0124Hc0626-SG1265/GRA0124Lc0544-SK2021 (antibody, human IgG1, kappa, the L chain name is printed with both 563 and 564 (564 stands in the row of the Fab SG1265/SK2021)) heavy: not shown light: AQVLTQTPSSTSVAVGGTVTINCQSSPSVYLNLLAWYQQKPGQPPKLLIYSASFLQSGVPPRFSGSGSGTQFTLTISGVQCADAATYYCAGVYSNNIYTFGGGTKVEIKETVAAPSVFIFPPSDEQLKSGTASVVCLLNNFYPREAEVQWKVDNALQSGNSQESVTEQDSKDCTYSLSSTLTLSKADYEKHKVYACEVTHQGLSSPVTKSFNRGEC | 14.4 | 0.000757 | 52700
GRA0124Hc0626-SG1265/GRA0124Lc0544-SK2 (antibody, human IgG1, kappa, full length antibody) heavy: not shown light: AQVLTQTPSSTSVAVGGTVTINCQSSPSVYLNLLAWYQQKPGQPPKLLIYSASFLQSGVPPRFSGSGSGTQFTLTISGVQCADAATYYCAGVYSNNIYTFGGGTKVEIKRTVAAPSVFIFPPSDEQLKSGTASVVCLLNNFYPREAKVQWKVDNALQSGNSQESVTEQDSKDCTYSLSSTLTLSKADYEKHKVYACEVTHQGLSSPVTKSFNRGEC | 15.9 | 0.000837 | 52700
GRA0124Hc0626-SG1/GRA0124Lc0951-SK2 (antibody, human IgG1, kappa, V domains shown, full length antibody) VH: QSVEESGGRLVTPGTPLTLTCTVSGVDLSNYAIHWVRQAPGKGLEWIGMIRSNGMRYYGTWAKGRFTTSKTSSTTVDLKMTSPTTEDTATYFCARLWNIWGPGTLVTVSS VL: AQVLTQTPSSTSVAVGGTVTINCQSSPSVYLNLLAWYQQKPGQPPKLLIYSASFLQSDVPDRFSGSGDGDQFDLDIDGVQCADAATYYCAGVYSNNIYTFGGGTKVEIKR | 4.04 | 0.000321 | 79400
GRA0105Hg-SG1/GRA0105Lg-SK2 (antibody, human IgG1, kappa, full length antibody) heavy: not shown light: AQVLTQTPSPVSAAVGGTVTINCQASQSVYNKNNLAWYQQKPGQPPKLLIYDASKLASGVPSRFKGGGSGTHFTLTISGVQCDDAATYYCQGTYYSSGWYNTFGGGTKVEIKRTVAAPSVFIFPPSDEQLKSGTASVVCLLNNFYPREAKVQWKVDNALQSGNSQESVTEQDSKDCTYSLSSTLTLSKADYEKHKVYACEVTHQGLSSPVTKSFNRGEC | 3.28 | 0.000455 | 139000

Results, then the binder that gave them:

Kd [nM] | koff [s⁻¹] | kon [M⁻¹ s⁻¹] | Binder
3.68 | 0.000267 | 72700 | GRA0124Hc1075-SG1/GRA0124Lc0952-SK2 (antibody, human IgG1, kappa, V domains shown, full length antibody) VH: QSVEESGGDLVTPGTPLTLTCTVDGVDLSNYAIHWVRQAPGKGLEWIGMIRSNGMRYYGTWAKGRFTTSKTSSTTVDLKMTSPTTEDTATYFCARLWNIWGPGTLVTVSS VL: AQVLDQTPSSTSVAVGGTVTINCQSSPSVYLNLLAWYQQKPGQPPKLLIYSASFLQSDVPDRFSGSGDGDQFDLDIDGVQCADAATYYCAGVYSNNIYTFGGGTKVEIKR
15.1 | 0.00078 | 51700 | GRA0124Hc0626-SG1286/GRA0124Lc0544-SK2027 (antibody, human IgG1, kappa, full length antibody) heavy: not shown light: AQVLTQTPSSTSVAVGGTVTINCQSSPSVYLNLLAWYQQKPGQPPKLLIYSASFLQSGVPPRFSGSGSGTQFTLTISGVQCADAATYYCAGVYSNNIYTFGGGTKVEIKETVAAPSVFIFPPSDEQLKSGTASVVCLLNNFYPREAEVQWKVDNALQSGNSQESVTEQDSEDCTYSLSSTLTLSKADYEKHKVYACEVTHQGLSSPVTKSFNRGEC
17 | 0.000883 | 51900 | GRA0124Hc0626-SG1286/GRA0124Lc0544-SK2 (antibody, human IgG1, kappa) heavy: not shown light: AQVLTQTPSSTSVAVGGTVTINCQSSPSVYLNLLAWYQQKPGQPPKLLIYSASFLQSGVPPRFSGSGSGTQFTLTISGVQCADAATYYCAGVYSNNIYTFGGGTKVEIKRTVAAPSVFIFPPSDEQLKSGTASVVCLLNNFYPREAKVQWKVDNALQSGNSQESVTEQDSKDCTYSLSSTLTLSKADYEKHKVYACEVTHQGLSSPVTKSFNRGEC
15.2 | 0.000786 | 51900 | GRA0124Hc0626-SG1286/GRA0124Lc0544-SK2025 (antibody, human IgG1, kappa) heavy: not shown light: AQVLTQTPSSTSVAVGGTVTINCQSSPSVYLNLLAWYQQKPGQPPKLLIYSASFLQSGVPPRFSGSGSGTQFTLTISGVQCADAATYYCAGVYSNNIYTFGGGTKVEIKRTVAAPSVFIFPPSDEQLKSGTASVVCLLNNFYPREAEVQWKVDNALQSGNSQESVTEQDSEDCTYSLSSTLTLSKADYEKHKVYACEVTHQGLSSPVTKSFNRGEC
256 | 0.0147 | 57600 | GRA1013Hhz-SG1/GRA1013Lqz-SK2 (antibody, human IgG1, kappa, full length antibody) heavy: not shown light: DILMTQTPLSLPVSLGDQASISCRSSQSIVHSNGNTYLEWYLQKPGQSPKLLIYKVSNRFSGVPDRFSGSGSGTDFTLKISRVEAEDLGVYYCFQGSHLPLTFGAGTKLELKRTVAAPSVFIFPPSDEQLKSGTASVVCLLNNFYPREAKVQWKVDNALQSGNSQESVTEQDSKDCTYSLSSTLTLSKADYEKHKVYACEVTHQGLSSPVTKSFNRGEC

What follows are binders tested against T1, soluble human IL-6R (assay: BLI (Octet), in the same way as in Example 3).

Binder | binding result
20A11-G1m/VK1-39-k0MT (antibody, human IgG1, kappa, V domains shown, IgG antibody-like molecule: anti-IL6R VHH 20A11 fused with human IgG1 CH1-hinge-CH2-CH3) VH: EVQLVESGGGLVQPGGSLRLSCAASGSVFKINVMAWYRQAPGKGRELVAGIISGGSTSYADSVKGRFTISRDNAKNTLYLQMNSLRPEDTAVYYCAFITTESDYDLGRRYWGQGTLVTVSS VL: DIQMTQSPSSLSASVGDRVTITCRASQSISSYLNWYQQKPGKAPKLLIYAASSLQSGVPSRFSGSGSGTDFTLTISSLQPEDFATYYCLQFDSYPLTFGGGTKVEIKR | binds
20A11-G1m/VK2-28-k0MT (antibody, human IgG1, kappa, V domains shown, IgG antibody-like molecule with VHH 20A11 in place of VH) VH: EVQLVESGGGLVQPGGSLRLSCAASGSVFKINVMAWYRQAPGKGRELVAGIISGGSTSYADSVKGRFTISRDNAKNTLYLQMNSLRPEDTAVYYCAFITTESDYDLGRRYWGQGTLVTVSS VL: not shown | binds
20A11-G1m/VL1-40-lamL (antibody, human IgG1, lambda, V domains shown, IgG antibody-like molecule with VHH 20A11 in place of VH) VH: EVQLVESGGGLVQPGGSLRLSCAASGSVFKINVMAWYRQAPGKGRELVAGIISGGSTSYADSVKGRFTISRDNAKNTLYLQMNSLRPEDTAVYYCAFITTESDYDLGRRYWGQGTLVTVSS VL: QSVLTQPPSVSGAPGQRVTISCTGSSSNIGAGYDVHWYQQLPGTAPKLLIYGNSNRPSGVPDRFSGSKSGTSASLAITGLQAEDEADYYCQSYDNSLNAVVFGGGTKLTVLG | binds

Second part, the binder after the results:

binding result | Binder
binds | 20A11-G1m/VL3-21-lamL (antibody, human IgG1, lambda, V domains shown, IgG antibody-like molecule with VHH 20A11 in place of VH) VH: EVQLVESGGGLVQPGGSLRLSCAASGSVFKINVMAWYRQAPGKGRELVAGIISGGSTSYADSVKGRFTISRDNAKNTLYLQMNSLRPEDTAVYYCAFITTESDYDLGRRYWGQGTLVTVSS VL: SYVLTQPPSVSVAPGKTARITCGGNNIGSKSVHWYQQKPGQAPVLVIYYDSDRPSGIPERFSGSNSGNTATLTISRVEAGDEADYYCQAWDSSTDVVFGGGTKLTVLG
binds | 20A11-G1m/VL1-44-lamL (antibody, human IgG1, lambda, V domains shown, IgG antibody-like molecule with VHH 20A11 in place of VH) VH: EVQLVESGGGLVQPGGSLRLSCAASGSVFKINVMAWYRQAPGKGRELVAGIISGGSTSYADSVKGRFTISRDNAKNTLYLQMNSLRPEDTAVYYCAFITTESDYDLGRRYWGQGTLVTVSS VL: not shown
binds | 20A11-G1m/VL2-14-lamL (antibody, human IgG1, lambda, V domains shown, IgG antibody-like molecule with VHH 20A11 in place of VH) VH: EVQLVESGGGLVQPGGSLRLSCAASGSVFKINVMAWYRQAPGKGRELVAGIISGGSTSYADSVKGRFTISRDNAKNTLYLQMNSLRPEDTAVYYCAFITTESDYDLGRRYWGQGTLVTVSS VL: QSALTQPASVSGSPGQSITISCTGTSSDVGGYNYVSWYQQHPGKAPKLMIYEVSNRPSGVSNRFSGSKSGNTASLTISGLQAEDEADYYCSSYRSGYTLVVFGGGTKLTVLG
